Results: publication PMC5941314, “Structural insights into the nanomolar affinity of RING E3 ligase ZNRF1 for Ube2N and its functional implications” (Biochemical Journal, 2018)

Assays:
Conditions in all cases: both partners purified
Ube2D2 = biological target: T1, Ube2D2 (UniProt P62837 1-147); assay: ITC; ZNRF1 construct (10–30 µM) in the cell, E2 in the syringe; 25°C; 20 mM sodium phosphate pH 8.0, 150 mM NaCl; single site model
T1 construct: Ube2D2, ubiquitin-conjugating enzyme E2 D2; also called wtUbe2D2; wild-type Ube2D2; source: E. coli Rossetta2 (DE3), purified (ion exchange, SEC)

Ube2N^R14A = biological target: T2, Ube2N^R14A (UniProt P61088 1-152, R14A); assay: as above
T2 construct: Ube2N, ubiquitin-conjugating enzyme E2 N, with R14A; source: E. coli Rossetta2 (DE3), purified (ion exchange, SEC)
T2 sequence (looked up): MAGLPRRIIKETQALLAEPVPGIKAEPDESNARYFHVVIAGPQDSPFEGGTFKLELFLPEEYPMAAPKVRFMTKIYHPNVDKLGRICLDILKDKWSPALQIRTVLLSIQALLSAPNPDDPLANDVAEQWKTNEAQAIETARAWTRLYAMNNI

Ube2N^R14D = biological target: T3, Ube2N^R14D (UniProt P61088 1-152, R14D); assay: as above
T3 construct: Ube2N, ubiquitin-conjugating enzyme E2 N, with R14D; source: E. coli Rossetta2 (DE3), purified (ion exchange, SEC)
T3 sequence (looked up): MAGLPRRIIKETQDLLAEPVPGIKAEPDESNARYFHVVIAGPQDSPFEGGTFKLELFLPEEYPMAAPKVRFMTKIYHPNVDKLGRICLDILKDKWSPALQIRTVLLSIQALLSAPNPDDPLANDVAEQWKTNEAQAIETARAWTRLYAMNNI

Ube2N^R14E = biological target: T4, Ube2N^R14E (UniProt P61088 1-152, R14E); assay: as above
T4 construct: Ube2N, ubiquitin-conjugating enzyme E2 N, with R14E; source: E. coli Rossetta2 (DE3), purified (ion exchange, SEC)
T4 sequence (looked up): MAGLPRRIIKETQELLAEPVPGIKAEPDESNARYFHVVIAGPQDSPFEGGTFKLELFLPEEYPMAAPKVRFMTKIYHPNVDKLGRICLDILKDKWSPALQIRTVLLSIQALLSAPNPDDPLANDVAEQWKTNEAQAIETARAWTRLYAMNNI

Ube2N/Ube2V1 complex = biological target: T5, Ube2N/Ube2V1 complex (UniProt P61088 1-152; Q13404 1-147); assay: as above
T5 construct: Ube2N, ubiquitin-conjugating enzyme E2 N; Ube2V1, ubiquitin-conjugating enzyme E2 variant 1; also called Ube2N/V1; source: E. coli Rossetta2 (DE3), each purified, mixed in stoichiometric amounts, complex isolated by SEC
T5 sequence (Q13404 whole entry, one chain of several): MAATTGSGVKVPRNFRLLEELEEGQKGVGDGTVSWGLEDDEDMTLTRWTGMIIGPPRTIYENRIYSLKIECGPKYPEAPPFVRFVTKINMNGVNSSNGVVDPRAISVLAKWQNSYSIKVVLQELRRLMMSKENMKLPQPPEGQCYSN

Ube2N^S96R = biological target: T6, Ube2N^S96R (UniProt P61088 1-152, S96R); assay: as above
T6 construct: Ube2N, ubiquitin-conjugating enzyme E2 N, with S96R; source: E. coli Rossetta2 (DE3), purified (ion exchange, SEC)
T6 sequence (looked up): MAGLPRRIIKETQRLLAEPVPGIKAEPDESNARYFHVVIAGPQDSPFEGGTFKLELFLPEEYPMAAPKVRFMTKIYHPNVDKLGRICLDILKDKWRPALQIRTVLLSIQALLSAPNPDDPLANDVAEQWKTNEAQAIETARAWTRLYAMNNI

Ube2N^A98T = biological target: T7, Ube2N^A98T (UniProt P61088 1-152, A98T); assay: as above
T7 construct: Ube2N, ubiquitin-conjugating enzyme E2 N, with A98T; source: E. coli Rossetta2 (DE3), purified (ion exchange, SEC)
T7 sequence (looked up): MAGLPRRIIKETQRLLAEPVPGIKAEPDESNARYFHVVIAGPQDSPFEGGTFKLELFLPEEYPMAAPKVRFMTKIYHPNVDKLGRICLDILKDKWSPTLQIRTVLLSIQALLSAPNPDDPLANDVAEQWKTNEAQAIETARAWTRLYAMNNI

Ube2W = biological target: T8, Ube2W (UniProt Q96B02 1-151); assay: as above
T8 construct: Ube2W, ubiquitin-conjugating enzyme E2 W; source: E. coli Rossetta2 (DE3), purified (ion exchange, SEC)

Ube2N [1] = biological target: T9, Ube2N (UniProt P61088 1-152); assay: as above
T9 construct: Ube2N, ubiquitin-conjugating enzyme E2 N; also called wtUbe2N; source: E. coli Rossetta2 (DE3), purified (ion exchange, SEC)
T9 sequence (looked up): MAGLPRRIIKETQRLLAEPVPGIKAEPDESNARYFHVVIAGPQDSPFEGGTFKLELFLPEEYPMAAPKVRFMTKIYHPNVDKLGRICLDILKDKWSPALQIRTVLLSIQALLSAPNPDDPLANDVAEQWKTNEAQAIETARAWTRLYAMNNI

Ube2N [2] = biological target: T9, Ube2N; assay: ITC; ZNRF1^CTD in the cell, Ube2N in the syringe; 25°C; Na-phosphate pH 8.0, 450 mM NaCl; single site model
Ube2N [3] = biological target: T9, Ube2N; assay: ITC; ZNRF1^CTD in the cell, Ube2N in the syringe; 25°C; Na-phosphate pH 8.0, 300 mM NaCl; single site model

B1: ZNRF1^CTD (C-terminal domain of ZNRF1, residues 139–227) (domain or fragment, UniProt Q8ND25 139-227, looked up)
chain: SHSGFKCPICSKSVASDEMEMHFIMCLSKPRLSYNDDVLTKDAGECVICLEELLQGDTIARLPCLCIYHKSCIDSWFEVNRSCPEHPAD
notes: ZNRF1, RING E3 ubiquitin ligase, residues 139-227 of the full-length protein (ZnF and RING domains); also called ZNRF1 C-terminal domain; ZRNF1^CTD; source: E. coli Rossetta2 (DE3), purified (HisTrap, SEC)
Kd (Ube2D2): 1130 nM | Kd (Ube2N^R14A): 320 nM | Kd (Ube2N^R14D): 948 nM | Kd (Ube2N^R14E): 1080 nM | Kd (Ube2N/Ube2V1 complex): 39.2 nM | Kd (Ube2N^S96R): 203 nM | Kd (Ube2N^A98T): 408 nM | Kd (Ube2W): 1090 nM | Kd (Ube2N [1]): 38.8 nM | Kd (Ube2N [2]): 225 nM | Kd (Ube2N [3]): 171 nM
